Data on 2 molecules can be found in patent US20020193570A1 (EMD LEXIGEN RESEARCH CENTER, published 2002).

Test [1] deals with T1, Fc-p40 fusion protein (human, UniProt P29460 23-328).
T1 construct: mature; Expected to dimerize through the Fc; not shown: human IgG1 Fc (vector pdC-Fc-X)
T1 sequence (looked up): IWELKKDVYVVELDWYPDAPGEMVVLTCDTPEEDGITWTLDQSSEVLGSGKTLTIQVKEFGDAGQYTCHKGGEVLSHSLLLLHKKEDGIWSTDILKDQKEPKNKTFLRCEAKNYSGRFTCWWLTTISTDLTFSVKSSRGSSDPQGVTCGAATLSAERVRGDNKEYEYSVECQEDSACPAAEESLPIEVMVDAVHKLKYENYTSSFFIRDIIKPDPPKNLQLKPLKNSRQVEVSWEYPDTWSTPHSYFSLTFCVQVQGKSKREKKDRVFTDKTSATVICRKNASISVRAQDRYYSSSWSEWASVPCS
As to the kind of experiment: co-expression in 293 cells, protein A Sepharose precipitation of 35S-labelled supernatant, SDS-PAGE. The procedure: (§1) After 16 hr, the medium containing the precipitate was removed and replaced with fresh medium. After 3 days, the supernatant was removed and analyzed for production of transfected gene expression by ELISA, biological determination of IL-12 activity, or immunoprecipitation and analysis on SDS gels of radioactively labeled proteins. For labeling, medium without methionine was used to replace the growth medium on the second day of culture and ³⁵S-methionine (100 μCi/ml) is added. After an additional 16 hr incubation, the media was harvested, clarified by centrifugation (5 min at 13,000 rpm in a table top microcentrifuge) and incubated with protein A Sepharose beads (10 μl of bead volume per ml of culture supernatant). After 1 hr at room temperature, the beads were washed by repeated centrifugation and resuspension in PBS buffer containing 1% NP-40. The final pellet was resuspended in SDS-containing gel buffer and boiled for 2 min. After removing the beads by centrifugation, the supernatant was divided into two aliquots. Reducing agent (5% 2-mercaptoethanol) was added to one sample and both are boiled for 5 min prior to loading on an SDS polyacrylamide gel. After electrophoresis the gel was exposed to X-ray film (autoradiography).
(§2) An example of an analysis of the co-expression of various fusion proteins and individually expressed proteins, under reducing conditions, is shown in FIG. 2. […] The p40 subunit, on the other hand, was readily secreted when fused to Fc (lane 2). The p35 subunit was secreted when it could pair with the p40 subunit, either as an Fc-p35 fusion pairing with an Fc-p40 fusion protein (lane 3), the Fc-p35 pairing with free p40 (lane 4), or free p35 pairing with the Fc-p40 fusion protein (lane 5). In all cases of expression of a free subunit, together with a fusion protein, the free subunit assembles with the other subunit and forms a covalent, disulfide bond. […]

The target of test [2] is T2, free p40 subunit of human IL-12 (human, UniProt P29460 23-328).
T2 construct: mature
T2 sequence (looked up): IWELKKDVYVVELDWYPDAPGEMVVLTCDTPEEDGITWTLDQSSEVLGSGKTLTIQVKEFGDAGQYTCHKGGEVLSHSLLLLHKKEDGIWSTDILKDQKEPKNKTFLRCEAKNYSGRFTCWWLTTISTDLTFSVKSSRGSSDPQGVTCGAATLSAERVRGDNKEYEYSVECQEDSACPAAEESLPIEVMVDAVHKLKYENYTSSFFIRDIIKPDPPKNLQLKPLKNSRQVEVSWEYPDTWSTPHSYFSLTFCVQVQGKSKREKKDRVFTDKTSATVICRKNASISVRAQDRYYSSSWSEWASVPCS
The description is as above. The procedure:
as §1, §2

B1: free p35 subunit of human IL-12 (ligand, UniProt P29459 23-219, looked up)
chain: RNLPVATPDPGMFPCLHHSQNLLRAVSNMLQKARQTLEFYPCTSEEIDHEDITKDKTSTVEACLPLELTKNESCLNSRETSFITNGSCLASRKTSFMMALCLSSIYEDLKMYQVEFKTMNAKLLMDPKRQIFLDQNMLAVIDELMQALNFNSETVPQKSSLEEPDFYKTKIKLCILLHAFRIRAVTIDRVMSYLNAS
notes: mature
Consider B1, for which the binding result in test [1] is on record as “binds”.

B2: Fc-p35 fusion protein (Fc fusion, human, UniProt P29459 23-219, looked up)
chain: RNLPVATPDPGMFPCLHHSQNLLRAVSNMLQKARQTLEFYPCTSEEIDHEDITKDKTSTVEACLPLELTKNESCLNSRETSFITNGSCLASRKTSFMMALCLSSIYEDLKMYQVEFKTMNAKLLMDPKRQIFLDQNMLAVIDELMQALNFNSETVPQKSSLEEPDFYKTKIKLCILLHAFRIRAVTIDRVMSYLNAS
notes: mature; Expected to dimerize through the Fc; Not secreted unless paired with p40; not shown: human IgG1 Fc (vector pdC-Fc-X)
For B2, the binding result in test [1] and in test [2] was “binds” each time.
